Test results taken from US20040223972A1 (FUNCTIONAL GENETICS, published 2004).

Biological target: biotinylated peptide Bio-…

B1: purified TSG101 protein that contains only the UEV domain, Q99816 1-145 (protein)
chain: MAVSESQLKKMVSKYKYRDLTVRETVNVITLYKDLKPVLDSYVFNDGSSRELMNLTGTIPVPYRGNTYNIPICLWLLDTYPYNPPICFVKPTSSMTIKTGKHVDANGKIYLPYLHEWKHPQSDLLGLIQVMIVVFGDEPPVFSRP
- Kd: 2000 nM
